Laboratory results published in publication PMC5148762.

Target: protein G B1
Experiment: quartz crystal microbalance with dissipation monitoring (QCM-D); protein G B1 adsorbed from 5 ug/ml in PBS onto polystyrene-coated gold quartz sensors, rinsed, then IgG flowed at 5 ug/ml in PBS, 150 ul/min, pH 7.4, 22 °C; mass by the Sauerbrey equation

IgG antibody
Sauerbrey mass bound: 350 ng/cm^2
